# Experimental data published in patent US8715959B2, “Substitution mutant receptors and their use in a nuclear receptor-based inducible gene expression system” (priority 2001, dated 2014).
# Experiments:
# CfEcR-DEF = experiment: GAL4/mutant CfEcR-DEF + VP16/LmUSP-EF GAL4-driven luciferase reporter transactivation in NIH3T3 cells; format: cell-based, Choristoneura fumiferana; conditions: NIH3T3 cells, relative to Gal4/wild-type CfEcR-DEF switch activity; for Fold increase over WT, 2.5 μM GS™-E: 2.5 μM GS™-E non-steroidal ligand; for Fold increase over WT, 2.5 μM PonA: 2.5 μM PonA steroidal ligand
# DmEcR-CDEF [1] = experiment: GAL4/DmEcR-CDEF wild-type and mutants, luciferase reporter transactivation in NIH3T3 cells; format: cell-based, Drosophila melanogaster; conditions: GAL4/DmEcR-CDEF + VP16/LmUSP-EF + pFRLUC, 48 hours
# Experimental: DNAs corresponding to the various switch constructs outlined in Example 1, specifically switches 1.1-1.2, were transfected into mouse NIH3T3 cells (ATCC) as follows. […] Two μl of Superfect™ was mixed with 100 μl of growth medium and 50 ng of either GAL4/wild-type EcR or Gal4/mutant EcR cassette, 50 ng of VP16/LmUSP-EF and 200 ng of pFRLuc were added to the transfection mix. […] The cells were harvested and reporter activity was assayed as described above.
# Applicants mutated amino acid residues predicted to be critical for ecdysteroid binding and created GAL4/mutantDmEcR-CDEF cDNA gene expression cassettes as described in Example 1 above using PCR-mediated site-directed mutagenesis. The mutated and the WT cDNAs corresponding to the various switch constructs outlined above in Examples 1.8 and 1.9 were made and tested in reporter assays in NIH3T3 cells as described in Example 2. Each GAL4/DmEcR-CDEF construct, VP16/LmUSP-EF, and pFRLUC were transfected into NIH3T3 cells and the transfected cells were treated with 2.5 μM GS-™E or Ponasterone A. The cells were harvested and the reporter activity was measured at 48 hours after addition of ligand. The fold induction was calculated by dividing reporter activity in the presence of ligand with the reporter activity in the absence of ligand. From the fold induction, percent wild-type activity was calculated for each mutant.
# DmEcR-CDEF [2] = experiment: VP16/DmEcR-CDEF wild-type and mutants, 6xEcRE β-gal reporter transactivation in insect L57 cells; format: cell-based, Drosophila melanogaster; conditions: for Fold increase over WT, 1 μM 20-hydroxyecdysone / Fold increase over WT, 1 μM GS™-E / reduction in steroid activity: VP16/DmEcR-CDEF; for reduction in steroid activity / steroid activity (summary of Table 14): 20E; for reduction in steroid activity: versus wild-type; for non-steroid activity (summary of Table 14): GS™-E; for non-steroid activity (summary of Table 14) / steroid activity (summary of Table 14): DmEcR mutants
# Experimental: The wild-type and mutant DmEcR-CDEF receptors were also used to make VP16/wild-type or mutantDmEcR-CDEF constructs as described in Example 1.10 and 1.11. VP16DmEcR-CDEF and a 6×EcREβ-gal reporter were transfected into L57 cells and the transfected cells were treated with 1 uM 20-hydroxyecdysone (20E) or GS™-E. The cells were harvested, lysed and the reporter activity was measured as described above in Example 6. The fold induction was calculated by dividing reporter activity in the presence of ligand with the reporter activity in the absence of ligand. From the fold induction, percent wild-type activity was calculated for each mutant.
Molecule,"Fold increase over WT, 2.5 μM GS™-E (CfEcR-DEF)","Fold increase over WT, 2.5 μM PonA (CfEcR-DEF)","Fold increase over WT, 2.5 μM GS™-E (DmEcR-CDEF [1])","Fold increase over WT, 2.5 μM Ponasterone A (DmEcR-CDEF [1])","Fold increase over WT, 1 μM 20-hydroxyecdysone (DmEcR-CDEF [2])","Fold increase over WT, 1 μM GS™-E (DmEcR-CDEF [2])",reduction in steroid activity (DmEcR-CDEF [2]),non-steroid activity (summary of Table 14) (DmEcR-CDEF [2]),steroid activity (summary of Table 14) (DmEcR-CDEF [2])
"W238A: CfEcR-DEF LBD substitution mutant, Tryptophan (W) to Alanine (A) (protein, listed as Choristoneura fumiferana) LTANQQFLIARLIWYQDGYEQPSDEDLKRITQTWQQADDENEESDTPFRQITEMTILTVQLIVEFAKGLPGFAKISQPDQITLLKACSSEVMMLRVARRYDAASDSVLFANNQAYTRDNYRKAGMAYVIEDLLHFCRCMYSMALDNIHYALLTAVVIFSDRPGLEQPQLVEEIQRYYLNTLRIYILNQLSGSARSSVIYGKILSILSELRTLGMQNSNMCISLKLKNRKLPPFLEEIADV",0.002 fold,0.013 fold,–,–,–,–,–,–,–
"F48A: CfEcR-DEF LBD substitution mutant, Phenylalanine (F) to Alanine (A) (protein, listed as Choristoneura fumiferana) LTANQQFLIARLIWYQDGYEQPSDEDLKRITQTWQQADDENEESDTPARQITEMTILTVQLIVEFAKGLPGFAKISQPDQITLLKACSSEVMMLRVARRYDAASDSVLFANNQAYTRDNYRKAGMAYVIEDLLHFCRCMYSMALDNIHYALLTAVVIFSDRPGLEQPQLVEEIQRYYLNTLRIYILNQLSGSARSSVIYGKILSILSELRTLGMQNSNMCISLKLKNRKLPPFLEEIWDV",0.007 fold,0.007 fold,–,–,–,–,–,–,–
"Q21A: CfEcR-DEF LBD substitution mutant, Glutamine (Q) to Alanine (A) (protein, listed as Choristoneura fumiferana) LTANQQFLIARLIWYQDGYEAPSDEDLKRITQTWQQADDENEESDTPFRQITEMTILTVQLIVEFAKGLPGFAKISQPDQITLLKACSSEVMMLRVARRYDAASDSVLFANNQAYTRDNYRKAGMAYVIEDLLHFCRCMYSMALDNIHYALLTAVVIFSDRPGLEQPQLVEEIQRYYLNTLRIYILNQLSGSARSSVIYGKILSILSELRTLGMQNSNMCISLKLKNRKLPPFLEEIWDV",0.32 fold,0.37 fold,–,–,–,–,–,–,–
"R95A/A110P: CfEcR-DEF LBD double mutant, R95A and A110P (protein, listed as Choristoneura fumiferana) LTANQQFLIARLIWYQDGYEQPSDEDLKRITQTWQQADDENEESDTPFRQITEMTILTVQLIVEFAKGLPGFAKISQPDQITLLKACSSEVMMLAVARRYDAASDSVLFPNNQAYTRDNYRKAGMAYVIEDLLHFCRCMYSMALDNIHYALLTAVVIFSDRPGLEQPQLVEEIQRYYLNTLRIYILNQLSGSARSSVIYGKILSILSELRTLGMQNSNMCISLKLKNRKLPPFLEEIWDV",0.4 fold,0.007 fold,–,–,–,–,–,–,–
"I51A: CfEcR-DEF LBD substitution mutant, Isoleucine (I) to Alanine (A) (protein, listed as Choristoneura fumiferana) LTANQQFLIARLIWYQDGYEQPSDEDLKRITQTWQQADDENEESDTPFRQATEMTILTVQLIVEFAKGLPGFAKISQPDQITLLKACSSEVMMLRVARRYDAASDSVLFANNQAYTRDNYRKAGMAYVIEDLLHFCRCMYSMALDNIHYALLTAVVIFSDRPGLEQPQLVEEIQRYYLNTLRIYILNQLSGSARSSVIYGKILSILSELRTLGMQNSNMCISLKLKNRKLPPFLEEIWDV",0.003 fold,0.004 fold,–,–,–,–,–,–,–
"G121R: DmEcR-CDEF LBD substitution mutant, Glycine (G) to Arginine (R) (protein, Drosophila melanogaster) LTYNQLAVIYKLIWYQDGYEQPSEEDLRRIMSQPDENESQTDVSFRHITEITILTVQLIVEFAKGLPAFTKIPQEDQITLLKACSSEVMMLRMARRYDHSSDSIFFANNRSYTRDSYKMARMADNIEDLLHFCRQMFSMKVDNVEYALLTAIVIFSDRPGLEKAQLVEAIQSYYIDTLRIYILNRHCGDSMSLVFYAKLLSILTELRTLGNQNAEMCFSLKLKNRKLPKFLEEIWDV",–,–,0.0075 fold,0.05 fold,0.5 fold,0.92 fold,50%,minimal effect,–
"A107P: DmEcR-CDEF LBD substitution mutant, Alanine (A) to Proline (P) (protein, Drosophila melanogaster) LTYNQLAVIYKLIWYQDGYEQPSEEDLRRIMSQPDENESQTDVSFRHITEITILTVQLIVEFAKGLPAFTKIPQEDQITLLKACSSEVMMLRMARRYDHSSDSIFFPNNRSYTRDSYKMAGMADNIEDLLHFCRQMFSMKVDNVEYALLTAIVIFSDRPGLEKAQLVEAIQSYYIDTLRIYILNRHCGDSMSLVFYAKLLSILTELRTLGNQNAEMCFSLKLKNRKLPKFLEEIWDV",–,–,–,–,0.09 fold,0.9 fold,–,very little effect,loss of most steroid activity
"C217A: DmEcR-CDEF LBD substitution mutant, Cysteine (C) to Alanine (A) (protein, Drosophila melanogaster) LTYNQLAVIYKLIWYQDGYEQPSEEDLRRIMSQPDENESQTDVSFRHITEITILTVQLIVEFAKGLPAFTKIPQEDQITLLKACSSEVMMLRMARRYDHSSDSIFFANNRSYTRDSYKMAGMADNIEDLLHFCRQMFSMKVDNVEYALLTAIVIFSDRPGLEKAQLVEAIQSYYIDTLRIYILNRHCGDSMSLVFYAKLLSILTELRTLGNQNAEMAFSLKLKNRKLPKFLEEIWDV",–,–,0.008 fold,0.022 fold,0.48 fold,0.70 fold,–,reduced,reduced
"C217S: DmEcR-CDEF LBD substitution mutant, Cysteine (C) to Serine (S) (protein, Drosophila melanogaster) LTYNQLAVIYKLIWYQDGYEQPSEEDLRRIMSQPDENESQTDVSFRHITEITILTVQLIVEFAKGLPAFTKIPQEDQITLLKACSSEVMMLRMARRYDHSSDSIFFANNRSYTRDSYKMAGMADNIEDLLHFCRQMFSMKVDNVEYALLTAIVIFSDRPGLEKAQLVEAIQSYYIDTLRIYILNRHCGDSMSLVFYAKLLSILTELRTLGNQNAEMSFSLKLKNRKLPKFLEEIWDV",–,–,0.014 fold,0.0064 fold,0.39 fold,0.92 fold,61%,minimal effect,–
"N213A: DmEcR-CDEF LBD substitution mutant, Asparagine (N) to Alanine (A) (protein, Drosophila melanogaster) LTYNQLAVIYKLIWYQDGYEQPSEEDLRRIMSQPDENESQTDVSFRHITEITILTVQLIVEFAKGLPAFTKIPQEDQITLLKACSSEVMMLRMARRYDHSSDSIFFANNRSYTRDSYKMAGMADNIEDLLHFCRQMFSMKVDNVEYALLTAIVIFSDRPGLEKAQLVEAIQSYYIDTLRIYILNRHCGDSMSLVFYAKLLSILTELRTLGNQAAEMCFSLKLKNRKLPKFLEEIWDV",–,–,–,–,0.01 fold,0.08 fold,–,lost sensitivity,lost sensitivity
